# T1: membrane-bound form of CD73 protein (Homo sapiens, UniProt P21589)
# T1 sequence (P21589 27-549): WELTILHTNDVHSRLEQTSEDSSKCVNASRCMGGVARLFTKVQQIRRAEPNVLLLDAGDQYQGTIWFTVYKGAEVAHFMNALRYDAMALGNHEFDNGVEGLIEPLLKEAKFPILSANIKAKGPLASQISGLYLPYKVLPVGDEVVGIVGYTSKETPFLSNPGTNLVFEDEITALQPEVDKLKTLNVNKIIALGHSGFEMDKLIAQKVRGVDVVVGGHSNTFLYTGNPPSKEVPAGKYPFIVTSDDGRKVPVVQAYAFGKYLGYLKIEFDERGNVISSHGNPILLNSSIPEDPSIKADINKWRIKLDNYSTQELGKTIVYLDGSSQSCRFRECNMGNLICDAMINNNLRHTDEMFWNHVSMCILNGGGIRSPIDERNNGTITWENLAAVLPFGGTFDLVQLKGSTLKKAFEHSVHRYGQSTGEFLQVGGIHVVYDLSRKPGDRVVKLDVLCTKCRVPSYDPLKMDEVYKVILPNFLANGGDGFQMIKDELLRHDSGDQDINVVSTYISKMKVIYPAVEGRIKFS
# T2: CD73 protein (Homo sapiens, UniProt P21589)
# T2 construct: immunoprecipitation of the CD73 protein from lysates of U138 glioblastoma cells; endogenous in cells; host or cells: U138 glioblastoma cells (lysate)
# T2 sequence (P21589 27-549): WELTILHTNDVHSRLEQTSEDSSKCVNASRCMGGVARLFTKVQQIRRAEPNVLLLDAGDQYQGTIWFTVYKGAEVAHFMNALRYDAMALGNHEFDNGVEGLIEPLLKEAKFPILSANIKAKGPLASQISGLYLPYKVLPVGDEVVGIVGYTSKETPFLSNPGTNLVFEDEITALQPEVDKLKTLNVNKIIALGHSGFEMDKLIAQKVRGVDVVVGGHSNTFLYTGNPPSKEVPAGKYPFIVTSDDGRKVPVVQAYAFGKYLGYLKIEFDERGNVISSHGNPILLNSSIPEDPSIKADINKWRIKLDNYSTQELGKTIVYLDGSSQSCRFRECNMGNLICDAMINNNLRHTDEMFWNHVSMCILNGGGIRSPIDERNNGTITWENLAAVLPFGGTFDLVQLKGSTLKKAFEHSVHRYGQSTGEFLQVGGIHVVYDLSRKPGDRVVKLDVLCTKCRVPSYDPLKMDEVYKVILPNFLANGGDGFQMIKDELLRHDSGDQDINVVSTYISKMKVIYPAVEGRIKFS
# T3: CD73 on cancer derived EVs (Homo sapiens, UniProt P21589)
# T3 construct: from tissue; host or cells: extracellular vesicles from malignant ascites (ovarian cancer patient)
# T3 sequence (P21589 27-549): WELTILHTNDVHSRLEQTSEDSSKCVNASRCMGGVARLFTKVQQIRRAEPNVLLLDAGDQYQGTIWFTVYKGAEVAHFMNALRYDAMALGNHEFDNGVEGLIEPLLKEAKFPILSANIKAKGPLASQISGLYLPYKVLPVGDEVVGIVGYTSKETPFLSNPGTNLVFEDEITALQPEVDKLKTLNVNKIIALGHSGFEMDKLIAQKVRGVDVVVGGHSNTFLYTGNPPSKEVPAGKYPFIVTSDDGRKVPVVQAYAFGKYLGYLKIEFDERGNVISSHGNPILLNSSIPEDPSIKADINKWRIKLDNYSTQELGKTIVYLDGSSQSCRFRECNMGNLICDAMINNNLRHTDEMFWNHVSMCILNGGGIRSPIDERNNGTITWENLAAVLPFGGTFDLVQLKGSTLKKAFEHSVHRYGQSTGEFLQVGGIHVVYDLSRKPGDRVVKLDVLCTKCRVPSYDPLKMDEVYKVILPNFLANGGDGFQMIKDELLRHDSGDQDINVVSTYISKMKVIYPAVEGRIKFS
# T4: CD73 protein on cancer cells (Homo sapiens, UniProt P21589)
# T4 construct: present on the surface of human cancer cells of a total of approx. 30 tested cell lines; endogenous in cells; host or cells: about 30 human cancer cell lines, e.g. U138 MG, GBM20, MDA-MB231, T47D
# T4 sequence (P21589 27-549): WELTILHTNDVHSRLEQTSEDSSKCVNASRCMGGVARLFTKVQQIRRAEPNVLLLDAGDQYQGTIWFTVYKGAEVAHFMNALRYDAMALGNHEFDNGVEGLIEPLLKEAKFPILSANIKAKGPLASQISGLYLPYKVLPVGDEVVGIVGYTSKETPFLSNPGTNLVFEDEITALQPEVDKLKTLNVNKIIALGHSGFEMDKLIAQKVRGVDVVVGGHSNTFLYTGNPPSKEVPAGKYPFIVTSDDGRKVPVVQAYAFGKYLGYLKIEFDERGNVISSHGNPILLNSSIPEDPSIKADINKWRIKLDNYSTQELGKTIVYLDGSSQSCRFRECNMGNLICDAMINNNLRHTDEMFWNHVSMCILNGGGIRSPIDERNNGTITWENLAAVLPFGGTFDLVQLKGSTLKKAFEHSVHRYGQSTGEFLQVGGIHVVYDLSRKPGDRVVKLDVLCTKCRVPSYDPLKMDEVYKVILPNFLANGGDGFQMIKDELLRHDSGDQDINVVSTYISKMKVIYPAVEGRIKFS
# T5: soluble CD73 protein (Homo sapiens, UniProt P21589)
# T5 sequence (P21589 27-549 limits assumed): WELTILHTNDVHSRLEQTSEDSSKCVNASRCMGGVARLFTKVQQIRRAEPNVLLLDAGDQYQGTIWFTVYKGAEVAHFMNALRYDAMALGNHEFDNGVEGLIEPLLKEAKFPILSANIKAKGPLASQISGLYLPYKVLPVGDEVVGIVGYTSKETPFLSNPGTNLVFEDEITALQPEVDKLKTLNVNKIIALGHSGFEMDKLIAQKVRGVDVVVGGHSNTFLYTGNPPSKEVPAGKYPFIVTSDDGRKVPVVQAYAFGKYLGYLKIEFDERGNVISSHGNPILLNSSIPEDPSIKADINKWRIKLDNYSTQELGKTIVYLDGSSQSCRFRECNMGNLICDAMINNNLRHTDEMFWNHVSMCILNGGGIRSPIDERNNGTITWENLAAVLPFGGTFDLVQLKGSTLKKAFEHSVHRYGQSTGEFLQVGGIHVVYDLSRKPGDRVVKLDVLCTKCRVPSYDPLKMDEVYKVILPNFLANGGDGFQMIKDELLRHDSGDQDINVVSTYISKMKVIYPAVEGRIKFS
# Assays:
# [1] = system: peripheral blood mononuclear cells; experiment: TNFα release in mixed lymphocyte reactions (ELISA); assay type: cell-based; conditions: 5×10^5 PBMCs each from two donors, 22E6 50 μg/ml, 37°, 24 h, versus GSF-mAb
# Procedure: 5×10^5 peripheral blood mononuclear cells each from two out of three different donors (A, B, C) were co-incubated in standard cell culture medium at 37° for 24 h with 22E6 (50 μg/ml) or a GSF-mAb (50 μg/ml) and the amount of TNFα was measured with a commercial ELISA assay.
# Accordingly, 5×10^5 peripheral blood mononuclear cells (PBMCs) each from two out of three different donors (A, B, C) were co-incubated in standard cell culture medium at 37° for 24 h with 22E6 (50 μg/ml) or a GSF-mAb (50 μg/ml) and the amount of TNFα was measured with a commercial ELISA assay.
# human CLL cells = experiment: ADO generation by human CLL cells; assay type: cell-based
# Source text: APCP is a CD73 small molecule inhibitor.
# (§1) Adenosine 5′-(α,β-methylene)diphosphate (APCP) is a small-molecule specific CD73 inhibitor.
# [2] = target: T1, membrane-bound form of CD73 protein; experiment: Inhibitory preference: enzymatic activity of membrane-bound CD73; assay type: biochemical; conditions: FIG. 10
# [3] = system: CD73-positive human A375 melanoma cells; experiment: AMP to adenosine conversion by CD73-positive A375 melanoma cells; assay type: cell-based; conditions: A375 melanoma cells incubated with AMP for 60 min
# Procedure: CD73-positive human A375 melanoma cells were incubate with AMP for 60 min and the concentration of AMP (left) and ADO (right) in the supernatant were measured. APCP is a small-molecule specific CD73 inhibitor.
# as §1
# [4] = system: Peripheral blood mononuclear cells (PBMCs); experiment: IFN-γ release by PBMCs (ELISA); assay type: cell-based; conditions: PBMCs from two donors incubated separately; 22E6 0.5 μg/ml and 5 μg/ml; 24 h; versus isotyp antibody
# Procedure: FIG. 15: Massive release of interferon-gamma (IFN-γ) being induced by mAB 22E6 in comparison to an isotyp antibody. IFN-γ being a marker for the activation of cytotoxic T-cells. Peripheral blood mononuclear cells (PBMCs) from two different donors were incubated separately as indicated at 37° C. for 24 h. Interferon-gamma (IFN-γ) in the supernatant was then quantified by a standard ELISA assay.
# Peripheral blood mononuclear cells (PBMCs) from two different donors were incubated separately in standard cell culture medium at 37^0 for 24 h with 22E6 (0.5 μg/ml and 5 μg/ml), APCP (1 μM and 5 μM), isotyp antibody (5 μg/ml), aPD-1 (5 μg/ml) and control (5 μg/ml). The amount of interferon-gamma (IFN-γ) in the supernatant was then measured with a commercial ELISA assay.
# CD73 protein = target: T2, CD73 protein; experiment: Immunoprecipitation of CD73 from U138 glioblastoma cell lysates followed by immunoblot with commercial CD73 mAb; assay type: binding; conditions: U138 glioblastoma lysate, versus isotype mAb
# Procedure: (§2) FIG. 3: mAb 22E6 recognizes CD73 on cancer cells. […] Shown are 4 representative cell lines of a total of approx. 30 tested cell lines. U138 MG and GBM20 are glioblastoma cell lines, MDA-MB231 and T47D are human breast cancer cell lines. (B) Immunoblot with the same cell line, using a commercial CD73 mAb. […] Input=U138 lysate.
# (§3) In this example, mAb 22E6 binding affinity was characterized (FIG. 3). […] Using a special flow cytometry technique, a fluorescence-activated cell sorting (FACS) with 22E6 and an anti-rat-IgG-specific, fluorophore-labeled secondary mAb, it was shown that the protein recognized by the 22E6 mAb of the invention is present on the surface of human cancer cells of a total of approx. 30 tested cell lines. U138 MG and GBM20 are glioblastoma cell lines, MDA-MB231 and T47D are human breast cancer cell lines. In order to compare the specificity of mAb 22E6 with the specificity of a commercial CD73 mAb an immunoblot with the same cell lines (U138 MG, GBM20, MDA-MB231 and T47D) was performed using the commercial CD73 mAb as shown in FIG. 3B.
# [5] = target: T3, CD73 on cancer derived EVs; experiment: ADO production by EVs from malignant ascites (inorganic phosphate, malachite green assay); assay type: biochemical; conditions: phosphate-free buffer, 1 mM AMP, 60 min, versus isotype mAb
# Procedure: FIG. 9: 22E6 blocks ADO production by EVs from malignant ascites. EVs were incubated in phosphate-free buffer in the presence of 1 mM AMP with APCP, 22E6 or an isotype mAb for 60 min and the concentration of inorganic phosphate (Pi; produced alongside the dephosphorylation of AMP) was quantified with a malachite green assay.
# Accordingly, EVs were incubated in phosphate-free buffer in the presence of 1 mM AMP with APCP, 22E6 or an isotype mAb for 60 min and the concentration of inorganic phosphate (Pi; produced alongside the dephosphorylation of AMP) was quantified with a standard malachite green assay. Based on the above it was concluded that 22E6 inhibits CD73 on cancer derived EVs.
# [6] = target: T4, CD73 protein on cancer cells; experiment: Flow cytometry (FACS) with 22E6 and anti-rat-IgG fluorophore-labeled secondary mAb on human cancer cell lines; assay type: binding; conditions: approx. 30 tested human cancer cell lines, e.g. U138 MG, GBM20, MDA-MB231, T47D
# Procedure: as §2, §3
# soluble CD73 protein = target: T5, soluble CD73 protein; experiment: Inhibitory preference: enzyme activity of soluble CD73; assay type: biochemical; conditions: FIG. 10
molecule,measurement,setting,value
"22E6: rat monoclonal anti-CD73 antibody from immunization with GBM20 glioblastoma EVs; VH SEQ ID NO: 9, VL SEQ ID NO: 13 (antibody, listed as Rattus norvegicus, V domains shown, (1)..(124) VH region; SITE (26)..(32) VH complementary determining region 1 (VH CDR1); SITE (52)..(57) VH complementary determining region 2 (H-CDR2); SITE (99)..(113) VH complementary determining region 3 (H-CDR3); (1)..(107) VL region; SITE (24)..(34) VL complementary determining region 1 (L-CDR1); SITE (50)..(56) VL complementary determining region 2 (L-CDR2); SITE (89)..(97) VL complementary determining region 3 (L-CDR3)) VH: EVQLVESGGGLVQPGRSMKLSCAASGFTFSFYYMAWVRQAPTKGLEWVASISTGGGNTYYRDSVKGRFTISRDDAKSTLYLQMDSLRSEETATYYCARHGGDYYGYRGGYFDYWDQGVMVTVSS VL: DIQMTQTPSSMPASLGERVTISCRASQGINNYLNWYQQKPDGTIKPLIYYTSNLQSGVPSRFSGSGSGTDYSLTISSLEPEDFAMYYCQQYDNSPYTFGAGTKLELK",release of TNFα,[1],increases the release of TNFα
same,ADO generation,human CLL cells,inhibits ADO generation by human CLL cells
same,"inhibitory preference, membrane-bound versus soluble form of CD73",[2],inhibitory preference for enzymatic activity of a membrane-bound form of CD73 protein
same,adenosine production (AMP and ADO concentration in supernatant),[3],blocks adenosine production
same,release of IFN-γ in the supernatant,[4],increases massive release of IFN-γ
same,specificity for CD73 by immunoprecipitation,CD73 protein,demonstrated the specificity of 22E6
same,ADO production by EVs (inorganic phosphate concentration),[5],blocks ADO production by EVs derived from malignant ascites
same,recognition of CD73 on the surface of cancer cells,[6],recognizes CD73 protein on cancer cells
same,effect on the enzyme activity of soluble CD73 protein,soluble CD73 protein,no or essentially no effect

# Reference: patent publication US11530273B2, “Anti-CD73 monoclonal antibody, encoding nucleic acids and method for producing” (HELMHOLTZ ZENTRUM MÜNCHEN—DEUTSCHES FORSCHUNGSZENTRUM FÜR …, priority 2017, dated 2022)
